Measured values as given in patent publication US8829044B2, “Stabilized vitamin C derivatives having a peptide molecule, preparation method thereof, and composition containing the same” (Peotron Co. Ltd., priority 2006, dated 2014).
Peptide text beside a SMILES is read from it. * marks the point of attachment. X1 = O=C(CCC(=O)*)O[C@@H](CO)[C@H]1OC(=O)C(OP(=O)(O)O)=C1O; X2 = O=C(CCC(=O)*)O[C@@H](CO)[C@H]1OC(=O)C(O)=C1O

Test: physchem
Procedure: Stability of each substance was evaluated, while being maintained at 25° C. and 50° C. for 30 days, by observing the change of UV (254 nm) absorbance.

[1] = buffer, Remaining test substance (%)

For C[C@@H](O)[C@H](NC(=O)[C@H](CCCCN)NC(=O)CCC(=O)O[C@@H](CO)[C@H]1OC(=O)C(OP(=O)(O)O)=C1O)C(=O)N[C@H](C(=O)N[C@@H](CCCCN)C(=O)N[C@@H](CO)C(=O)O)[C@@H](C)O [Ic-1, 2-phospho-5-(succinyl-lysine-threonine-threonine-lysine-serine) ascorbic acid] (X1-KTTKS-OH), the remaining at 24 h, 10 μg/mL [1] was 100%, the remaining at 48 h, 10 μg/mL [1] was 100% and the remaining at 72 h, 10 μg/mL [1] was 100%. It also gave a remaining at 120 h, 10 μg/mL [1] of 100% and a remaining at 240 h, 10 μg/mL [1] of 100%.

With O=C1O[C@H]([C@@H](O)CO)C(O)=C1O [Vitamin C, ascorbic acid] the “Remaining test substance (%)” value (buffer, 0 day, 10 μg/mL) was 100%, the “Remaining test substance (%)” value (buffer, 2 day, 10 μg/mL) was 0% and the “Remaining test substance (%)” value (buffer, 3 day, 10 μg/mL) was 0%. The “Remaining test substance (%)” value (buffer, 5 day, 10 μg/mL) was 0%, the “Remaining test substance (%)” value (buffer, 10 day, 10 μg/mL) was 0% and the “Remaining test substance (%)” value (buffer, 20 day, 10 μg/mL) was 0%. For the same compound, the “Remaining test substance (%)” value (buffer, 30 day, 10 μg/mL) was 0%.

Work on C[C@@H](O)[C@H](NC(=O)[C@H](CCCCN)NC(=O)CCC(=O)O[C@@H](CO)[C@H]1OC(=O)C(O)=C1O)C(=O)N[C@H](C(=O)N[C@@H](CCCCN)C(=O)N[C@@H](CO)C(=O)O)[C@@H](C)O [succinoyl ascorbyl pentapeptide] (X2-KTTKS-OH) yielded a remaining at 24 h, 10 μg/mL (buffer, Remaining test substance (%), day 1, 25° C., 10 μg/mL in purified water) of 60%, a remaining at 24 h, 10 μg/mL (buffer, Remaining test substance (%), day 1, 50° C., 10 μg/mL in purified water) of 50% and a remaining at 48 h, 10 μg/mL (buffer, Remaining test substance (%), day 2, 25° C., 10 μg/mL in purified water) of 20%. The remaining at 48 h, 10 μg/mL (buffer, Remaining test substance (%), day 2, 50° C., 10 μg/mL in purified water) was 10%, the remaining at 72 h, 10 μg/mL (buffer, Remaining test substance (%), day 3, 25° C., 10 μg/mL in purified water) was 10% and the remaining at 72 h, 10 μg/mL (buffer, Remaining test substance (%), day 3, 50° C., 10 μg/mL in purified water) was 0%. The remaining at 120 h, 10 μg/mL (buffer, Remaining test substance (%), day 5, 50° C., 10 μg/mL in purified water) was 0%, the remaining at 240 h, 10 μg/mL (buffer, Remaining test substance (%), day 10, 50° C., 10 μg/mL in purified water) was 0% and the remaining at 480 h, 10 μg/mL (buffer, Remaining test substance (%), day 20, 50° C., 10 μg/mL in purified water) was 0%. The remaining at 720 h, 10 μg/mL (buffer, Remaining test substance (%), day 30, 50° C., 10 μg/mL in purified water) was 0%, the “Remaining test substance (%)” value (day 0, 25° C., 10 μg/mL in purified water) was 100% and the “Remaining test substance (%)” value (day 0, 50° C., 10 μg/mL in purified water) was 100%. The “Remaining test substance (%)” value (day 5, 25° C., 10 μg/mL in purified water) was 0%, the “Remaining test substance (%)” value (day 10, 25° C., 10 μg/mL in purified water) was 0% and the “Remaining test substance (%)” value (day 20, 25° C., 10 μg/mL in purified water) was 0%. For the same compound, the “Remaining test substance (%)” value (day 30, 25° C., 10 μg/mL in purified water) was 0%.
